Source: paper PMC6372160, “Biophysical and structural characterization of a zinc-responsive repressor of the MarR superfamily” (PLoS ONE, 2019)

What was measured:
[1] = target: the molecule itself; experiment: SEC-MALS; 50 ul of fully purified protein at approximately 1-4 mg/ml on a KW-803 column (Shodex), 0.5 ml/min, supplemented with 1 uM ZnSO4 (untreated protein)
[2] = target: the molecule itself; experiment: SEC; gel filtration at the end of purification, 20 mM Tris-HCl (pH 7.0), 200 mM NaCl, 100 uM ZnSO4; data not shown

B1: ZitR protein of Lactococcus lactis subspecies cremoris strain MG1363, untagged recombinant (S2A, A4R, D8E) form (natural protein, UniProt A2RNS2 1-145, looked up)
chain: MALRNQIEQFLGAIMQFAENKHEILLGECESNVKLTSTQEHILMILAAEVSTNARIAEQLKISPAAVTKALKKLQEQELIKSSRATNDERVVLWSLTEKAIPVAKEHAAHHEKTLSTYQELGDKFTDEEQKVISQFLSVLTEEFR
notes: A minor tetrameric form was also seen at the end of the purification; also called ZitRMG; holo-ZitRMG
stoichiometry N [1]: 2 | stoichiometry N [2]: 4
